In assay [1] the target is Human CD16a/FcγRIIIa 158V (human). Briefly: SPR. For orientation: Surface plasmon resonance follows binding to a sensor surface in real time, without labels.
Assay [2] has as its target Human CD16a/FcγRIIIa 158F (human) (UniProt P08637). Briefly: SPR.

pKd: −log10 of the molar value.

Human CD16a/FcγRIIIa 158V (human), sequence (P08637 17-208): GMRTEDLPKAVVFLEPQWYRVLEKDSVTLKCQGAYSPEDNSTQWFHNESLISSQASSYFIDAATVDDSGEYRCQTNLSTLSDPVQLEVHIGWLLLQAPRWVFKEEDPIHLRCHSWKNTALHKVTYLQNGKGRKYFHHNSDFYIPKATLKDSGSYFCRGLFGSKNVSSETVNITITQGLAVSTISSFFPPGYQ

For orientation: pKd means −log10 of the Kd, conventionally taken in molar units. Read a low pKd as a large Kd. For “P-mab (in-house made pertuzumab biosimilar) (antibody)”, the figures for the negative logarithm of the Kd (pKd) in assay [1] and in assay [2] were 6.09 and 5.57, respectively.

With “T-mab (in-house made trastuzumab biosimilar) (antibody)”, the results for the negative-log Kd (pKd) in assay [1] and in assay [2] were 6.51 and 5.79, respectively.

Values taken from PMC6152455.
